Data from patent US20140087995A1 (published 2014).
Numbered stars: 1 amine (or outer) side, 2 acyl side, 3 side chain; on linkers, the order of the positions; unused ones are H or OH. Bridge positions count the residues as written; N and C are the ends. Side chains are listed from the residue outwards. Ends that are not written are not given here. * marks the point of attachment. C20 diacid = O=C(O)CCCCCCCCCCCCCCCCCCC(=O)*; γGlu = O=C(O)[C@H](CCC(=O)[*:2])N[*:1]; AEEA = NCCOCCOCC(=O)O

T1: rat calcitonin receptor (rat, UniProt P32214 25-516)
T1 construct: whole, on cells; Membranes prepared from transiently transfected BHK tk'ts 13 cells (Assay VIII); also called rCTR; rCT
T1 sequence (looked up): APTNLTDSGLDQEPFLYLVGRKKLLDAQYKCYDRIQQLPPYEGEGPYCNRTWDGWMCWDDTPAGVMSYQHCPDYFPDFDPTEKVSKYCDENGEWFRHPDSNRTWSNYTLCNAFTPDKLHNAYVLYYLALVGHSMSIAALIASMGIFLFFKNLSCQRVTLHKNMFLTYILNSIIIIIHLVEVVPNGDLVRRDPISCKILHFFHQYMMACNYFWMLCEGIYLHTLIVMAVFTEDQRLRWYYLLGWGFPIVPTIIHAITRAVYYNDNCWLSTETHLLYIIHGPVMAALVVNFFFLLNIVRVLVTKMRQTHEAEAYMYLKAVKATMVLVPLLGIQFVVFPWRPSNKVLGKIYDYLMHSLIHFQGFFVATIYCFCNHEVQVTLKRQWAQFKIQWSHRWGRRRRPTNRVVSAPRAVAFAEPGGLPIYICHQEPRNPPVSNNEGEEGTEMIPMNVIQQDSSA

T2: rat amylin receptor (rat calcitonin receptor + rat RAMP 3) (rat, UniProt P32214 25-516; Q9JJ73 23-147)
T2 construct: whole, on cells; Membranes prepared from transiently transfected BHK tk'ts 13 cells (Assay VI); also called rAmylin-R; rAmylin
T2 sequence (looked up) 1: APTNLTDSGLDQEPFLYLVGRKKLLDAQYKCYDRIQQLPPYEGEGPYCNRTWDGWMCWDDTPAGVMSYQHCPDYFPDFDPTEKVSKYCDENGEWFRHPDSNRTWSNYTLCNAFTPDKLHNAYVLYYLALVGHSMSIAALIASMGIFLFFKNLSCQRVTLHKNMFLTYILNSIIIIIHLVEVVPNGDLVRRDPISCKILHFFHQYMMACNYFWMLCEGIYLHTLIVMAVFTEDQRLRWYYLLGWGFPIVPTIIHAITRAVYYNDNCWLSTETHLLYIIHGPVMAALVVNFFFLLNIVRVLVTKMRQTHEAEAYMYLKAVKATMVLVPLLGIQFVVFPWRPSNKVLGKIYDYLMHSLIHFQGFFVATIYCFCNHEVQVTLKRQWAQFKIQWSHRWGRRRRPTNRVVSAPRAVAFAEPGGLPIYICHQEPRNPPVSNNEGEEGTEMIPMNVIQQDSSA
T2 sequence (looked up) 2: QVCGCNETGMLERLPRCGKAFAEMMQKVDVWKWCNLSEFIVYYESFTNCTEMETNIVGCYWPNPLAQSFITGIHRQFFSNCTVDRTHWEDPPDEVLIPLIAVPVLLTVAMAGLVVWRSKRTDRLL

T3: human calcitonin receptor (human, UniProt P30988 25-474)
T3 construct: whole, on cells; Membranes prepared from a stably transfected BHK cell line (Assay VII); also called hCTR; hCT
T3 sequence (looked up): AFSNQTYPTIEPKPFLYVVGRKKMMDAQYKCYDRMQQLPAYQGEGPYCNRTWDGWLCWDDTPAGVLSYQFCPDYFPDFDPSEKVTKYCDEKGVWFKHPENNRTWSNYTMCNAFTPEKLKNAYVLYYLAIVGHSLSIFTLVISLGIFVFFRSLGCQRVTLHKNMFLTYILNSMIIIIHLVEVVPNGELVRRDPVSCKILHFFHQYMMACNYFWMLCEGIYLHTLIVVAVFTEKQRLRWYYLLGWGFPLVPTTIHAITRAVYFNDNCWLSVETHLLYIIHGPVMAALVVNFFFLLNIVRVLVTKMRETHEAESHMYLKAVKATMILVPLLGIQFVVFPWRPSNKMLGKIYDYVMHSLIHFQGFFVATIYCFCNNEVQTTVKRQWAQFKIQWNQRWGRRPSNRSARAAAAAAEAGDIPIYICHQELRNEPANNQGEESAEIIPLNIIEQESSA


Tests used:
rat calcitonin receptor [1] = target: T1, rat calcitonin receptor; assay: ratio of binding IC50s: rat calcitonin receptor / rat amylin receptor (reference)
[2] = target: T2, rat amylin receptor (rat calcitonin …); assay: SPA competition vs 125I-rat amylin, membranes of BHK cells with rat calcitonin receptor + rat RAMP3 (Assay VI)
[3] = target: T3, human calcitonin receptor; assay: ratio of binding IC50s: human calcitonin receptor / human amylin receptor (reference)
In short: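 Membranes (35 ng/μL final) + SPA beads, 50 mM Hepes pH 7.4 buffer with 1 mM CaCl2, 5 mM MgCl₂, 0.1% OA, 0.02% Tween20; 120 min, 25° C, shaking; centrifuged, counted; IC₅₀ by one-site binding competition.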

rat calcitonin receptor [4] = target: T1, rat calcitonin receptor; assay: SPA competition vs 125I-calcitonin, membranes of BHK cells with rat calcitonin receptor (Assay VIII)

Row | Ratio rCT/rAmylin binding (rat calcitonin receptor [1]) | IC50 [2] [nM] | Ratio hCT/hAmylin binding [3] | IC50 (rat calcitonin receptor [4]) [nM] | Binder
1 | 22.3 | 4.89 | 101 | 109 | K([AEEA-γGlu-C20 diacid])CNTATCATQRLAKFLRHSSPNFGAIPSSTPVGSNTY-NH2 (disulfide 2-7; N-terminus assumed; SMILES CC[C@H](C)[C@H](NC(=O)[C@H](C)NC(=O)CNC(=O)[C@H](Cc1ccccc1)NC(=O)[C@H](CC(N)=O)NC(=O)[C@@H]1CCCN1C(=O)[C@H](CO)NC(=O)[C@H](CO)NC(=O)[C@H](Cc1c[nH]cn1)NC(=O)[C@H](CCCNC(=N)N)NC(=O)[C@H](CC(C)C)NC(=O)[C@H](Cc1ccccc1)NC(=O)[C@H](CCCCN)NC(=O)[C@H](C)NC(=O)[C@H](CC(C)C)NC(=O)[C@H](CCCNC(=N)N)NC(=O)[C@H](CCC(N)=O)NC(=O)[C@@H](NC(=O)[C@H](C)NC(=O)[C@@H]1CSSC[C@H](NC(=O)[C@@H](N)CCCCNC(=O)COCCOCCNC(=O)CC[C@H](NC(=O)CCCCCCCCCCCCCCCCCCC(=O)O)C(=O)O)C(=O)N[C@@H](CC(N)=O)C(=O)N[C@@H]([C@@H](C)O)C(=O)N[C@@H](C)C(=O)N[C@@H]([C@@H](C)O)C(=O)N1)[C@@H](C)O)C(=O)N1CCC[C@H]1C(=O)N[C@@H](CO)C(=O)N[C@@H](CO)C(=O)N[C@H](C(=O)N1CCC[C@H]1C(=O)N[C@H](C(=O)NCC(=O)N[C@@H](CO)C(=O)N[C@@H](CC(N)=O)C(=O)N[C@H](C(=O)N[C@@H](Cc1ccc(O)cc1)C(N)=O)[C@@H](C)O)C(C)C)[C@@H](C)O, Analogue of human amylin; also called compound 74)
2 | 110 | 4.03 | 91.4 | 442 | K([AEEA-γGlu-C20 diacid])CNTATCATQRLATFLRHSSPNFGAIPSSTPVGSNTY-NH2 (disulfide 2-7; N-terminus assumed; SMILES CC[C@H](C)[C@H](NC(=O)[C@H](C)NC(=O)CNC(=O)[C@H](Cc1ccccc1)NC(=O)[C@H](CC(N)=O)NC(=O)[C@@H]1CCCN1C(=O)[C@H](CO)NC(=O)[C@H](CO)NC(=O)[C@H](Cc1c[nH]cn1)NC(=O)[C@H](CCCNC(=N)N)NC(=O)[C@H](CC(C)C)NC(=O)[C@H](Cc1ccccc1)NC(=O)[C@@H](NC(=O)[C@H](C)NC(=O)[C@H](CC(C)C)NC(=O)[C@H](CCCNC(=N)N)NC(=O)[C@H](CCC(N)=O)NC(=O)[C@@H](NC(=O)[C@H](C)NC(=O)[C@@H]1CSSC[C@H](NC(=O)[C@@H](N)CCCCNC(=O)COCCOCCNC(=O)CC[C@H](NC(=O)CCCCCCCCCCCCCCCCCCC(=O)O)C(=O)O)C(=O)N[C@@H](CC(N)=O)C(=O)N[C@@H]([C@@H](C)O)C(=O)N[C@@H](C)C(=O)N[C@@H]([C@@H](C)O)C(=O)N1)[C@@H](C)O)[C@@H](C)O)C(=O)N1CCC[C@H]1C(=O)N[C@@H](CO)C(=O)N[C@@H](CO)C(=O)N[C@H](C(=O)N1CCC[C@H]1C(=O)N[C@H](C(=O)NCC(=O)N[C@@H](CO)C(=O)N[C@@H](CC(N)=O)C(=O)N[C@H](C(=O)N[C@@H](Cc1ccc(O)cc1)C(N)=O)[C@@H](C)O)C(C)C)[C@@H](C)O, Analogue of human amylin; also called compound 75)
3 | 35.6 | 3.48 | 157 | 124 | K([γGlu-C20 diacid])CNTATCATQRLARFLRHSSPNFGAIPSSTPVGSNTY-NH2 (disulfide 2-7; N-terminus assumed; SMILES CC[C@H](C)[C@H](NC(=O)[C@H](C)NC(=O)CNC(=O)[C@H](Cc1ccccc1)NC(=O)[C@H](CC(N)=O)NC(=O)[C@@H]1CCCN1C(=O)[C@H](CO)NC(=O)[C@H](CO)NC(=O)[C@H](Cc1c[nH]cn1)NC(=O)[C@H](CCCNC(=N)N)NC(=O)[C@H](CC(C)C)NC(=O)[C@H](Cc1ccccc1)NC(=O)[C@H](CCCNC(=N)N)NC(=O)[C@H](C)NC(=O)[C@H](CC(C)C)NC(=O)[C@H](CCCNC(=N)N)NC(=O)[C@H](CCC(N)=O)NC(=O)[C@@H](NC(=O)[C@H](C)NC(=O)[C@@H]1CSSC[C@H](NC(=O)[C@@H](N)CCCCNC(=O)CC[C@H](NC(=O)CCCCCCCCCCCCCCCCCCC(=O)O)C(=O)O)C(=O)N[C@@H](CC(N)=O)C(=O)N[C@@H]([C@@H](C)O)C(=O)N[C@@H](C)C(=O)N[C@@H]([C@@H](C)O)C(=O)N1)[C@@H](C)O)C(=O)N1CCC[C@H]1C(=O)N[C@@H](CO)C(=O)N[C@@H](CO)C(=O)N[C@H](C(=O)N1CCC[C@H]1C(=O)N[C@H](C(=O)NCC(=O)N[C@@H](CO)C(=O)N[C@@H](CC(N)=O)C(=O)N[C@H](C(=O)N[C@@H](Cc1ccc(O)cc1)C(N)=O)[C@@H](C)O)C(C)C)[C@@H](C)O, Analogue of human amylin; also called compound 63)
4 | 83.2 | 1.58 | 101 | 131 | K([γGlu-C20 diacid])CNTATCATQRLAAFLRHSSPNFGAIPSSTNVGHNTY-NH2 (disulfide 2-7; N-terminus assumed; SMILES CC[C@H](C)[C@H](NC(=O)[C@H](C)NC(=O)CNC(=O)[C@H](Cc1ccccc1)NC(=O)[C@H](CC(N)=O)NC(=O)[C@@H]1CCCN1C(=O)[C@H](CO)NC(=O)[C@H](CO)NC(=O)[C@H](Cc1c[nH]cn1)NC(=O)[C@H](CCCNC(=N)N)NC(=O)[C@H](CC(C)C)NC(=O)[C@H](Cc1ccccc1)NC(=O)[C@H](C)NC(=O)[C@H](C)NC(=O)[C@H](CC(C)C)NC(=O)[C@H](CCCNC(=N)N)NC(=O)[C@H](CCC(N)=O)NC(=O)[C@@H](NC(=O)[C@H](C)NC(=O)[C@@H]1CSSC[C@H](NC(=O)[C@@H](N)CCCCNC(=O)CC[C@H](NC(=O)CCCCCCCCCCCCCCCCCCC(=O)O)C(=O)O)C(=O)N[C@@H](CC(N)=O)C(=O)N[C@@H]([C@@H](C)O)C(=O)N[C@@H](C)C(=O)N[C@@H]([C@@H](C)O)C(=O)N1)[C@@H](C)O)C(=O)N1CCC[C@H]1C(=O)N[C@@H](CO)C(=O)N[C@@H](CO)C(=O)N[C@H](C(=O)N[C@@H](CC(N)=O)C(=O)N[C@H](C(=O)NCC(=O)N[C@@H](Cc1c[nH]cn1)C(=O)N[C@@H](CC(N)=O)C(=O)N[C@H](C(=O)N[C@@H](Cc1ccc(O)cc1)C(N)=O)[C@@H](C)O)C(C)C)[C@@H](C)O, Analogue of human amylin; also called compound 93)
5 | 178 | 0.283 | 51.7 | 50.3 | K([AEEA-γGlu-C20 diacid])CNTATCATQRLASFLRHSSPNFGAIPSSTPVGSNTY-NH2 (disulfide 2-7; N-terminus assumed; SMILES CC[C@H](C)[C@H](NC(=O)[C@H](C)NC(=O)CNC(=O)[C@H](Cc1ccccc1)NC(=O)[C@H](CC(N)=O)NC(=O)[C@@H]1CCCN1C(=O)[C@H](CO)NC(=O)[C@H](CO)NC(=O)[C@H](Cc1c[nH]cn1)NC(=O)[C@H](CCCNC(=N)N)NC(=O)[C@H](CC(C)C)NC(=O)[C@H](Cc1ccccc1)NC(=O)[C@H](CO)NC(=O)[C@H](C)NC(=O)[C@H](CC(C)C)NC(=O)[C@H](CCCNC(=N)N)NC(=O)[C@H](CCC(N)=O)NC(=O)[C@@H](NC(=O)[C@H](C)NC(=O)[C@@H]1CSSC[C@H](NC(=O)[C@@H](N)CCCCNC(=O)COCCOCCNC(=O)CC[C@H](NC(=O)CCCCCCCCCCCCCCCCCCC(=O)O)C(=O)O)C(=O)N[C@@H](CC(N)=O)C(=O)N[C@@H]([C@@H](C)O)C(=O)N[C@@H](C)C(=O)N[C@@H]([C@@H](C)O)C(=O)N1)[C@@H](C)O)C(=O)N1CCC[C@H]1C(=O)N[C@@H](CO)C(=O)N[C@@H](CO)C(=O)N[C@H](C(=O)N1CCC[C@H]1C(=O)N[C@H](C(=O)NCC(=O)N[C@@H](CO)C(=O)N[C@@H](CC(N)=O)C(=O)N[C@H](C(=O)N[C@@H](Cc1ccc(O)cc1)C(N)=O)[C@@H](C)O)C(C)C)[C@@H](C)O, Analogue of human amylin; also called compound 73)
